From paper PMC5725494, “Cell cycle-dependent phosphorylation regulates RECQL4 pathway choice and ubiquitination in DNA double-strand break repair”
Numbering of substitutions follows the chain as printed.

Columns and labels:
Test in all cases: EMSA; 25 or 50 nM protein, 0.5 nM DNA; 5 mM MnCl2, no ATP; 25 mM HEPES pH 7.4, 5 mM MnCl2, 1 mM DTT, 100 ng/mL BSA, 5% glycerol, no ATP; 10 min at 37 °C; 10% native PAGE
Conditions in all cases: protein: recombinant; tags: 3xFLAG; label: 5'-32P on Mix3-19 (S13); fork: 19 bp duplex with 5' T15 arm (strand 1) and 3' T15 arm (strand 2)
RECQL4 RQ4-2D = biological target: T1, RECQL4 RQ4-2D (UniProt O94761 1-1208, S89D;S251D)
T1 sequence: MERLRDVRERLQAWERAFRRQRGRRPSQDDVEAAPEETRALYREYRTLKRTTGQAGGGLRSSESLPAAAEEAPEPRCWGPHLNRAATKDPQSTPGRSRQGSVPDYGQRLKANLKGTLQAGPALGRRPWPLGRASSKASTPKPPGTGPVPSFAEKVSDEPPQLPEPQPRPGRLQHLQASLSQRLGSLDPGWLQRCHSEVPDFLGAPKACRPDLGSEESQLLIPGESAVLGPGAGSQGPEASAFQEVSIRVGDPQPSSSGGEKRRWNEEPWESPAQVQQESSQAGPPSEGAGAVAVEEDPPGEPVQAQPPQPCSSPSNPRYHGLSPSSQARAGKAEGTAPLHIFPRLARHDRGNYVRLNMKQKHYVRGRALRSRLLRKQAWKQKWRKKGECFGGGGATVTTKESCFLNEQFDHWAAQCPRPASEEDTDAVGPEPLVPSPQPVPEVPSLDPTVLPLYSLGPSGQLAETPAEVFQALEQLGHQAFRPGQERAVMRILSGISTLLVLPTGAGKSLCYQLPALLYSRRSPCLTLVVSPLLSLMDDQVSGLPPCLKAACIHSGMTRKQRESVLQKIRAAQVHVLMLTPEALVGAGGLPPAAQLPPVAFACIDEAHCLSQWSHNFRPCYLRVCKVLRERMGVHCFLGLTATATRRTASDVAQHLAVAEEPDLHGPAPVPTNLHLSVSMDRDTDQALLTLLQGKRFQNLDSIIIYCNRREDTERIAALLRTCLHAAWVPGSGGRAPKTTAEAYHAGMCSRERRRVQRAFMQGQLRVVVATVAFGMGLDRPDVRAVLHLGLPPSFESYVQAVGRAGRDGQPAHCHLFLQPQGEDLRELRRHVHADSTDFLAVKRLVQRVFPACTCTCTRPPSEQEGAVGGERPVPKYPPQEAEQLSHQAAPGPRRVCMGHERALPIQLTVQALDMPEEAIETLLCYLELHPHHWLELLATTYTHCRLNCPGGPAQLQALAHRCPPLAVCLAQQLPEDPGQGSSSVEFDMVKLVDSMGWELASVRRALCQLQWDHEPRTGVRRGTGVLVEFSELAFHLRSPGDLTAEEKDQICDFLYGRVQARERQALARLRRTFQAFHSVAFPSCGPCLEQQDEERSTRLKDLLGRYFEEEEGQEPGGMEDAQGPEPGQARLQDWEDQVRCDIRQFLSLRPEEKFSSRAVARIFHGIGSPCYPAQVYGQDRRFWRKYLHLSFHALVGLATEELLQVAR

RECQL4 WT (RQ4Wt) = biological target: T2, RECQL4 WT (RQ4Wt) (UniProt O94761 1-1208)
T2 sequence: T1 sequence with D89S, D251S

RECQL4 RQ4-2A = biological target: T3, RECQL4 RQ4-2A (UniProt O94761 1-1208, S89A;S251A)
T3 sequence: T1 sequence with D89A, D251A

Measured: binding signal

B1: Mix3/4-19 Y-shaped duplex (dsDNA)
DNA 1: TTTTTTTTTTTTTTTGAGTGTGGTGTACATGCAC
DNA 2: GTGCATGTACACCACACTCTTTTTTTTTTTTTTT
~40 % DNA shifted: RECQL4 RQ4-2D | RECQL4 WT (RQ4Wt) | RECQL4 RQ4-2A
